Experimental findings from patent US20220119522A1 (DENALI THERAPEUTICS, published 2022) are described below.

No end group written: not given here.

Assay [1] addresses T1, human TREM2 on the cell surface (human, UniProt Q9NZC2 19-230).
T1 construct: also called surface TREM2; TREM2 expressed in HEK293-H6 cells
T1 sequence: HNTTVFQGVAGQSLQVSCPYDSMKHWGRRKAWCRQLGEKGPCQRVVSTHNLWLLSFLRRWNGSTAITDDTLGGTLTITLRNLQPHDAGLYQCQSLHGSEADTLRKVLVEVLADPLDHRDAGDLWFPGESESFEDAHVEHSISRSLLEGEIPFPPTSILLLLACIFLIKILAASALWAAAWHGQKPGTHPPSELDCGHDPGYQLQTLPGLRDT
Kind of assay: cell binding, human macrophages, dose titration.

Assay [2] concerns the target T1, human TREM2 on the cell surface. In words: cell-based or functional assay.
Assay [3] addresses T2, mouse TREM2 full length stalk region peptide (aa 131-169) (mouse, UniProt Q99NH8 131-169, biotinylated (site not stated)).
T2 peptide (looked up): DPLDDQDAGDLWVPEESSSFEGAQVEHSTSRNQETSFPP
In words: ELISA on biotinylated peptide captured by streptavidin; A450 normalised to isotype control. In outline: (§1)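 Sandwich ELISA: biotinylated TREM2 stalk peptides captured on streptavidin-coated plates, antibodies added for 1 h in 1% BSA/PBS, binding detected with anti-human kappa-HRP and TMB at A450. Values expressed as fold over isotype-control background.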

In assay [4] the target is T3, human TREM2 full length stalk region peptide (aa 129-172) (human, biotinylated (site not stated)).
T3 construct: also called Human TREM2 peptide (aa 129-172); full-length TREM2 stalk peptide
T3 peptide: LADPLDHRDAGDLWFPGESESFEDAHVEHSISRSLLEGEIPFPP
The description is as above. In outline:
as §1

The target in assay [5] is T4, human TREM2 truncated stalk peptide (aa 149-163) (human, also: biotinylated (site not given here)).
T4 construct: also called Human TREM2 peptide (aa 149-163); truncated stalk peptide containing the ADAM10/17 cleavage site
T4 peptide: SFEDAHVEHSISRSL
The assay is described as above. In outline:
as §1

Assay [6] deals with T5, recombinant cynomolgus TREM2 ECD (cynomolgus).
T5 construct: extracellular domain; also called cyno TREM2
In words: SPR (Biacore), antibody captured via anti-human Fab, recombinant TREM2 ECD injected, 1:1 fit. In outline: (§2)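 Antibodies captured on a CM5 chip via anti-human Fab, then 3-fold serial dilutions of recombinant human or cynomolgus TREM2 ECD injected at 30 μL/min in HBS-EP+. Association 300 s, dissociation 600+ s, blank-cell subtracted; kon and koff from simultaneous 1:1 Langmuir fit.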
In general terms: SPR reads the build-up and loss of mass on a sensor chip optically.

The target of assay [7] is T6, His-tagged human TREM2 ECD (human, UniProt Q9NZC2 19-172).
T6 construct: Biacore and HDX say only recombinant human TREM2 (ECD); also called recombinant human TREM2; hTREM2
T6 sequence: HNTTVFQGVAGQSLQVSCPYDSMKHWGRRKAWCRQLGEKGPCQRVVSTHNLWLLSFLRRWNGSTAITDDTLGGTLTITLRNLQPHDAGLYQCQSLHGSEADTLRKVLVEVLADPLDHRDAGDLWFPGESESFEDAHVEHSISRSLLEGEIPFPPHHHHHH
The assay is described as above. In outline:
as §2

For assay [8], the target named is T6, His-tagged human TREM2 ECD. In words: SPR (Biacore). The method, then: Surface plasmon resonance (Biacore™ 8K instrument) was used to measure anti-TREM2 antibody affinities for human and cynomolgus TREM2 ECD. Anti-TREM2 antibodies were captured using Human Fab Capture Kit (GE Healthcare Life Sciences, Catalog No. 28958325) on a Biacore Series S CM5 sensor chip (GE Healthcare Life Sciences, Catalog No. 29149604). Serial 3-fold dilutions of recombinant human or cynomolgus TREM2 were injected at a flow rate of 30 μL/min. Antibody binding was monitored for 300 seconds, followed by monitoring of antibody dissociation for 600+seconds in HBS-EP+ running buffer (GE Healthcare Life Sciences, Catalog No. BR100669). The binding response was corrected by subtracting the RU value from a blank flow cell. A 1:1 Languir model of simultaneous fitting of kₒₙ and koff was used for kinetics analysis.
(§3) Sequence optimization was conducted by searching within CDR sequences for residues that are susceptible to chemical modification (e.g., asparagine deamidation motifs (NG), aspartic acid isomerization motifs (DS), and potential oxidation residues (tryptophan (W) and methionine (M)) and making amino acid substitutions with conservative and germline residues to remove such sequence liabilities. Humanized and sequence-optimized variants of anti-TREM2 antibodies were then analyzed for binding kinetics using Biacore and dose-titrated cell binding to HEK293-H6 cells (see, Example 1 for representative protocols).

For assay [9], the target named is T1, human TREM2 on the cell surface. In words: flow cytometry, dose-titrated binding to HEK293-H6 cells. On the procedure:
After incubation, the cells were centrifuged and washed in FACS buffer (PBS+0.5% BSA) twice. Mixed cells were resuspended in FACS buffer with human Trustain FcX solution (Biolegend, Catalog No. 422302) at a density of 10⁶/mL per cell line. The mixed cell lines were seeded at 200,000 cells per well in a 96-well round-bottom plate and incubated for 20 minutes at room temperature. After incubation, the cells were centrifuged and incubated with anti-TREM2 antibodies of about 0-200 nM dose titration for 45 minutes on ice. After incubation, the cells were centrifuged and washed with FACS buffer three times. […] After incubation, the cells were washed with FACS buffer three times, resuspended in 100 μL of FACS buffer, and analyzed by flow cytometry (BD FACSCanto II, San Jose, Calif.), for which 30,000 events were obtained for each sample. Mean fluorescence intensity per cells were calculated by FlowJo software and used for generating dose response binding curve.
as §3
On the technique in general: A flow cytometer gives signals particle by particle.

B1: CL0020139 (antibody, V domains shown)
VH: EVQLQQSGPELVKPGASVKMSCKAPGYSFTSYLMNWVKQKPGQGLEWIGYINPYSAGSNYNEKFKDKATLTSDKSSSTAYMELRSLTSEDSAVYFCARSSYRYGFDYWGQGTTLTVSS
VL: DIQMTQSSSSFSVSLGDRVTITCKASEDIYNRLAWYQQKPGNAPRLLISGATSLETGVPSRFSGSGSGKDYTLSITSLQTEDVATYSCQQYWSTPWTFGGGTKLEIK
notes: also called Clone CL0020139
Turning to B1, the concentration for a half-maximal effect (EC50) (as a rule, the concentration that produces a half-maximal response) in assay [1] was 1.6 nM. In [2], the “NFAT EC50 (nM), plate coated mAb” value is 30.8 nM. For the same molecule, the “Survival EC50 (nM), plate coated mAb, human macrophages” value (“Survival EC50 (nM), plate coated mAb” for short) in assay [2] came to 1.8 nM. In assay [2], the “pSyk activation (human macrophages) EC50 (nM)” value was found to be 23.8 nM. In addition, the “fold over background (A450)” value in assay [3] came to 1.4 fold; in assay [4] it was 1.6 fold; in assay [5], 1.3 fold. The values for the dissociation constant Kd in assay [6] and in assay [7] were 0.3 nM and 1.6 nM, respectively.

B2: CL0020313 (antibody, V domains shown)
VH: QVQLKQSGPGLLQPSQSLSITCTVSGFSLTSYGVHWVRQSPGKGLEWLGVIWSGGITLYNAAFMSRLSITKDNSKSQVFFKMNSLQADDTAIYYCAKVGYGSSSDYWGQGTTLTVSS
VL: DVLMTQSPLSLPVSLGDQASFSCRSSQSIVHSNGNTYLEWYLQKPGQSPKLLIYKVSNRFSGVPDRFSGSGSGTDFTLKISRVEAEDLGVYYCFQGSHVPFTFGSGTKLEIK
notes: also called Clone CL0020313
B2 came in with a half-maximal effective concentration (EC50) in assay [1] of 1.2 nM. Further, the “Survival EC50 (nM), plate coated mAb” value in assay [2] is 30.7 nM. Further, the “pSyk activation (HEK293-H6) EC50 (nM)” value in assay [2] was 46.6 nM. Moreover, the “fold over background (A450)” value in assay [4] was found to be 12 fold; in assay [5], 1.2 fold. The dissociation constant Kd (as a rule, a measure of binding affinity in units of concentration) in assay [6] is 13.8 nM; in assay [7] it was 14 nM.

B3: CL0020123 (antibody, V domains shown)
VH: EVQLQQSGAELVRSGASVKLSCTASGFSIEDFYIHWVKQRPEQGLEWIGWIDPENGDSKYAPKFQGKATMTADTSSNTAYLHLSSLTSEDTAVYYCHADHGNYGSTMDYWGQGTSVTVSS
VL: DIQMNQSPSSLSASLGDTVTITCHASQHINVWLSWYQQKPGDHPKLLIYKASNLHTGVPSRFSGSGSGTGFTLTISSLQPEDIATYYCQQGQTYPRTFGGGTKLEIK
notes: also called Clone CL0020123
As for B3, the EC50 was determined as 0.3 nM in assay [1] and 0.26 nM in [9]. Further, the Kd was determined as 0.1 nM in [8], 5.7 nM in [6] and 0.068 nM in assay [7]. For the same molecule, the “Survival EC50 (nM), plate coated mAb” value in [2] was determined as 44.7 nM. The “pSyk activation (human macrophages) EC50 (nM)” value in assay [2] was 7 nM. Also, the “fold over background (A450)” value was found to be 1 fold in [3], 1.2 fold in [4] and 1.2 fold in assay [5].

B4: CL0020314 (antibody, V domains shown)
VH: DVKLVESGGGLVKLGGSLKLSCAASGFTFSSYYMSWVRQTPEKRLELVAAINTNGGRTYYPDTVKGRFTISRDNAKNTLYLQMSSLKSEDTALYYCARESDGGAFAYWGQGTLVTVSA
VL: DVVMTQTPLSLPVSLGDQASISCRSSQSLVHSNGNTYLHWYLQKPGQSPKLLIYKVSNRFSGVPDRFSGSGSGTDFTLKISRVEAEDLGVYFCSQNTHVPLTFGAGTKLELK
notes: also called Clone CL0020314
In turn, B4 came in with a half-maximal effective concentration (EC50) in assay [1] of 0.05 nM. The “Survival EC50 (nM), plate coated mAb” value in assay [2] turned out to be 1.6 nM. In addition, in [2], the “pSyk activation (HEK293-H6) EC50 (nM)” value was determined as 18.8 nM. Also, the “fold over background (A450)” value was 1 fold in assay [3], 11 fold in assay [4] and 1.2 fold in [5]. In addition, the Kd turned out to be 56.9 nM in assay [6] and 0.33 nM in assay [7].

B5: CL0020315 (antibody, V domains shown)
VH: EVQLQQSGPELVKPGASVKISCKASGYTFTDYNIHWVKQSHGKSLEWIGYIYPYNGVTGYNQKFKSKATLTVDNSSSTAYMELRSLTSEDSAVYYCARSRVDGDYWGQGTTLTVSS
VL: DVVMTQTPLSLPVSLGDQASISCRSSQSLVHSNGNTYLHWYLQKPGQSPKLLIYKISNRFSGVPDRFSGSGSGTDFTLKISRVEAEDLGVYFCSQSTHVPLTFGAGTKLELK
notes: also called Clone CL0020315
For B5, a half-maximal response in [1] (EC50) required 5.6 nM. Moreover, in assay [2], the “NFAT EC50 (nM), plate coated mAb” value was determined as 72.7 nM. For the same molecule, the “Survival EC50 (nM), plate coated mAb” value in assay [2] was 10.1 nM. The figures for the “fold over background (A450)” value in [3], in assay [4] and in assay [5] were 6.8 fold, 8.7 fold and 1.3 fold, respectively. Besides, the Kd amounted to 2.52 nM in assay [6] and 0.0259 nM in assay [7].
